Source: patent US7871610B2, “Antibodies to Tie1 ectodomain” (Dyax Corp., priority 2003, dated 2011)

Key:
Tie1 = Tie1 (Homo sapiens, UniProt P35590); assay: Immunofluorescence staining of Tie1-transfected COS1 cells; type: binding; conditions: COS1 cells transfected with pcDNA3-Tie1-V5; antibodies 5 μg/ml
Description: COS1 cells on the glass coverslips were transiently transfected with pcDNA3-Tie1-V5 (the V5-epitope was added to the 3′ terminus of pcDNA3-Tie1) (1 μg DNA per 10 cm cell culture plate) using FUGENE™ 6 (Roche) according to manufacturer's instruction and incubated for 48 h before staining. Cells were fixed in 4% paraformaldehyde for 10 min at 4° C. If required, the cells were permeabilized with 0.2% Triton X-100 in PBS for 5 min. Unspecific binding sites were blocked by incubation with 1% BSA in PBS for 30 min. The cells were then stained with anti-Tie1 antibodies (5 μg/ml) and anti-V5 antibodies for 1 h at room temperature, followed by incubation with FITC— conjugated anti-human antibodies (DAKO, 40 μg/ml) and TRITC-conjugated anti-mouse antibodies (DAKO, 15 μg/ml) for 30 min. Hoechst 33258 fluorochrome (Sigma, 0.5 μg/ml) was used for the staining of the nuclei.

[1] = target: T1, Tie1-EpoR chimeric receptor (UniProt P14753+P35590); assay: Ba/F3 bioassay (Tie1/EpoR chimeric BaF3 cell assay), MTT viability; type: cell-based, human; conditions: 100 ng/ml E3 IgG together with 100 (1:1) or 500 (1:5) ng/ml of the other antibody
T1 construct: the PCR amplified extracellular part of human Tie1 (bp 37-2316 of X60975); expressed in transfected cells
T1 sequence (P35590+P14753 with tags, fused parts or gaps): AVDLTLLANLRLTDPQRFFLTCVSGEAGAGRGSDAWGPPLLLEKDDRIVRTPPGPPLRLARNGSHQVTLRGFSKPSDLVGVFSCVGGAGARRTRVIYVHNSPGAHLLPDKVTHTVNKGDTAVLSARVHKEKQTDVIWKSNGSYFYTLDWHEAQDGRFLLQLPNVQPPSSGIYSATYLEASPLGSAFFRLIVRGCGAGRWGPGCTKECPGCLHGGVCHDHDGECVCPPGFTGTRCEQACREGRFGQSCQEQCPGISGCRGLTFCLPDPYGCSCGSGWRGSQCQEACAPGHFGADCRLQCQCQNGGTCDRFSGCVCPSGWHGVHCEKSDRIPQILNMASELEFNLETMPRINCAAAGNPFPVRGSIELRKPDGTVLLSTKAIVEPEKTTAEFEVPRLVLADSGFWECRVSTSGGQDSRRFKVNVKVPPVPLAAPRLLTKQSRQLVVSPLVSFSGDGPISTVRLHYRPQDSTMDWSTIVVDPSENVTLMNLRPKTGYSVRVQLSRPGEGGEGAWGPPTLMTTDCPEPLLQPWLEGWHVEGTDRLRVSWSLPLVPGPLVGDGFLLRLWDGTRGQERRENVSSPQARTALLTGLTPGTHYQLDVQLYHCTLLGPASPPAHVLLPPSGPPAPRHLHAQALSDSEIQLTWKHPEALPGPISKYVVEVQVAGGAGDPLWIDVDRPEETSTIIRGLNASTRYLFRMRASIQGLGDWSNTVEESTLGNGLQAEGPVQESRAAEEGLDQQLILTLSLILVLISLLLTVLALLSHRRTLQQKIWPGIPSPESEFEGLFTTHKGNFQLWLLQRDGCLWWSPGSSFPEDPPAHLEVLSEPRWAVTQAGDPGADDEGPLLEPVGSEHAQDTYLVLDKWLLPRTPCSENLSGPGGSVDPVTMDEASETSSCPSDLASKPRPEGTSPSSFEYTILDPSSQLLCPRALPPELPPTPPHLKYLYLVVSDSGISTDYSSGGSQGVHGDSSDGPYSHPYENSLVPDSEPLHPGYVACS
Excerpt: To generate Tie1-EpoR expressing Ba/F3 cells for the bioassay, Ba/F3 pre-B cells were stably transfected with a nucleic acid that expresses chimeric receptor containing the extracellular domain of human Tie1 fused with the transmembrane and cytoplasmic domains of the mouse erythropoietin receptor. The nucleic acid used was a Tie1-EpoR chimeric cDNA in a pEF-BOS expression vector. The nucleic acid encoding the chimeric receptor was constructed by cloning the PCR amplified extracellular part of human Tie1 (bp 37-2316 of X60975) as EcoRI-BglII fragment into mEpoR-pcDNA vector. The cDNA encoding for the chimeric receptor consisting of the extracellular part of Tie1 fused with the transmembrane and intracellular domains of EpoR was subcloned into the pEF-BOS expression vector. Vector was linearized and co-transfected into Ba/F3 cells with pcDNA3.1(+) Zeo vector (Invitrogen). Stable cell pools were generated by selection with 250 μg/ml Zeocin. The expression of Tie1/EpoR fusion protein in several clones was analyzed by Western blotting with an antibody against EpoR.
To perform the assays, Ba/F3 cells expressing the Tie 1-EpoR chimera were split in 96-well microtiter plates at 50 000 cells/well in the presence of the indicated concentrations of anti-Tie1 antibodies. As controls, Zeocin resistant pools not expressing the Tie1-EpoR were used. After 48 h, the viability of the cells was determined by adding MTT (3-(4,5-dimethylthiazol-2-yl)-2,5-diphenyl tetrazolium bromide (Sigma), 0.5 mg/ml), followed by further 2 h of culture, addition of an equal volume of cell lysis solution (10% SDS, 10 mM HCl) and incubation overnight at 37° C. Absorbance was measured at 540 nm.
Although no ligand for Tie1 has been identified, we used the following efficient screening method for Tie1-binding proteins. Interleukin-3 dependent pre-B-lymphocyte (Ba/F3) cells were transfected with a construct that expresses a Tie1-EpoR fusion protein. Since Ba/F3 cells are IL-3 dependent, they die unless IL-3 is provided. However, Tie-EpoR receptor expressing Ba/F3 cells can survive and proliferate if the medium contains a Tie1-binding protein, either a natural ligand or an artificial mimetic. Cell survival can be quantitated, e.g., by colorimetric MTT-assay, which measures mitochondrial activity.

Mouse Tie 1-Fc = target: T2, Mouse Tie 1-Fc (Mus musculus, UniProt Q06806); assay: BIAcore, E3 Fabs on mouse Tie1-Fc; type: binding; conditions: E3 Fab over biotinylated mouse Tie-1 Fc on streptavidin chip; 1:1 model
T2 sequence (Q06806 23-755 limits assumed): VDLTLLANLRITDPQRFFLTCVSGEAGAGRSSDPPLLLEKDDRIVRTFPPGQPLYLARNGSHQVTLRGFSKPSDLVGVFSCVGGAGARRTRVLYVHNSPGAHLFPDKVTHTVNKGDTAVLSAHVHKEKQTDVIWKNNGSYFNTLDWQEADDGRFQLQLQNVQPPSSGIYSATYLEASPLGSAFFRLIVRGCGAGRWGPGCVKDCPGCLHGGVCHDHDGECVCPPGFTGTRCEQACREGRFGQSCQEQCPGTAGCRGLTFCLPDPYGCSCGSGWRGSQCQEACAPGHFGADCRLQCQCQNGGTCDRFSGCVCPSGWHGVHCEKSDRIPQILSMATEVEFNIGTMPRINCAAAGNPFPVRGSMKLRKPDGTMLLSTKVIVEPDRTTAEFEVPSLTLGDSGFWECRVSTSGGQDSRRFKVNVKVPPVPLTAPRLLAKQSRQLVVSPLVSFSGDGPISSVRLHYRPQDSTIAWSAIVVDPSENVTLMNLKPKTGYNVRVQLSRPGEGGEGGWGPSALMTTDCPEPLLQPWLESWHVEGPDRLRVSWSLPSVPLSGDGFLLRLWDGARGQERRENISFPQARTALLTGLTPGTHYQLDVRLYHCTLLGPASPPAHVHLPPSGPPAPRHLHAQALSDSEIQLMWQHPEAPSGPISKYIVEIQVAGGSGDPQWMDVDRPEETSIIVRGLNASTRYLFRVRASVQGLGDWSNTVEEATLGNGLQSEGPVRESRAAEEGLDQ
Description: Mouse Tie 1-Fc antigen (0.5 mg/ml stock) was biotinylated using established procedures and after dilution 1/100 fold in HBS this was then used for capturing to a streptavidin chip. This was coated to a resonance value of 740RU. All analysis was performed in HBS buffer. The parental Fab E3 0.587 mg/ml (11740 nM) was diluted 1/587 in HBS+BSA to obtain a stock of 20 nM and the germlined Fab E3 0.025 mg/ml (500 nM) was diluted 1/25 in HBS+BSA to obtain a stock of 20 nM. Serial dilutions were made of each Fab preparation to obtain 10 nM, 5 nM, 2.5 nM, and 1.25 nM. For the association phase samples were injected at 30 μl/min for 4 minutes using kinject program. This was followed by a 10 minutes dissociation phase, any remaining sample was stripped from the Tie-1 Fc surface at a flow of 50 μl/min with a single injection of 50 mM NaOH+1 M NaCl for 18 seconds. All samples were run and analyzed in duplicate.
Sensorgrams were analyzed using the simultaneous ka/kd fitting program with 1:1 model in the BIAEVALUATION™ software 3.1.

[2] = target: T3, recombinant human Tie1-Fc (Homo sapiens, UniProt P35590); assay: BIAcore, parental and germlined E3b Fabs on human Tie-1/Fc; type: binding; conditions: E3 Fab over human Tie-1/Fc coated on CM5 chip; 1:1 model
T3 construct: selected against the Tie1 extracellular domain fused to human Fc or to a histidine purification tag
T3 sequence (P35590 22-759 limits assumed): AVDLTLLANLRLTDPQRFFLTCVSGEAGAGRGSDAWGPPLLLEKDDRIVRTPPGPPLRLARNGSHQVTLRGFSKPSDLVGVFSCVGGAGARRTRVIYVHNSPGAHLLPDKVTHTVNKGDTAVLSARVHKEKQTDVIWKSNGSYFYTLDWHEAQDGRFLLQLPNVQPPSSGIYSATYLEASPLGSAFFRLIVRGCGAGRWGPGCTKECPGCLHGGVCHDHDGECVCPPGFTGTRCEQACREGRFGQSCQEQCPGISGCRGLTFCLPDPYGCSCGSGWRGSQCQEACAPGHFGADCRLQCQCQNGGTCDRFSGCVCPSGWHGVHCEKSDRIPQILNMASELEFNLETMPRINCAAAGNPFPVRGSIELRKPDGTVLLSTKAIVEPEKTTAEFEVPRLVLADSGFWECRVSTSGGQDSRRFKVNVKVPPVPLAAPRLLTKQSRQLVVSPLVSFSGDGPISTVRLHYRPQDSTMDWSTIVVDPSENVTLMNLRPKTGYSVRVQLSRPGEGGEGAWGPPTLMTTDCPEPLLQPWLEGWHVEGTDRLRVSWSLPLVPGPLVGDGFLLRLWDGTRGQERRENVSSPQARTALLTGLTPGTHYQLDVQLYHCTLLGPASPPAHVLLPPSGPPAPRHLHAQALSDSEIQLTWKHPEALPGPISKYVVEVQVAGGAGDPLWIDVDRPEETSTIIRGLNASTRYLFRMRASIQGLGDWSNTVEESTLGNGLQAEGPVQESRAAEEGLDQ
Description: Recombinant human Tie-1/Fc was coated on a CM5 chip. The surface of the chip was first activated with a 7-minute pulse of 0.05 M NHS/0.2 M EDC, then Tie-1/Fc (2 μg/ml in 10 mM sodium acetate, pH 4.0) was run over the chip surface until 750 RUs were coated on the surface. All flow cells were subsequently deactivated with a 7-minute pulse of 1 M ethanolamine hydrochloride, pH 8.5. All further experiments were performed in HBS buffer.
The parental and the germlined E3b Fabs were prepared. A series of dilution (50, 25, 12.5, 6.25 and 3.125 nM) was prepared in HBS buffer. Samples were injected at 30 μl/min for 5.3 minutes using the KINJECT™ program. This was followed by a 10-minute dissociation phase, and the remaining Fab was stripped from the surface with a single 18-sec injection of 50 mM NaOH/1 M NaCl.
Sensorgrams were analyzed using the simultaneous ka/kd fitting program from the BIAEVALUATION™ software 3.1 assuming a 1:1 model.

Tie1, sequence (P35590 22-1138): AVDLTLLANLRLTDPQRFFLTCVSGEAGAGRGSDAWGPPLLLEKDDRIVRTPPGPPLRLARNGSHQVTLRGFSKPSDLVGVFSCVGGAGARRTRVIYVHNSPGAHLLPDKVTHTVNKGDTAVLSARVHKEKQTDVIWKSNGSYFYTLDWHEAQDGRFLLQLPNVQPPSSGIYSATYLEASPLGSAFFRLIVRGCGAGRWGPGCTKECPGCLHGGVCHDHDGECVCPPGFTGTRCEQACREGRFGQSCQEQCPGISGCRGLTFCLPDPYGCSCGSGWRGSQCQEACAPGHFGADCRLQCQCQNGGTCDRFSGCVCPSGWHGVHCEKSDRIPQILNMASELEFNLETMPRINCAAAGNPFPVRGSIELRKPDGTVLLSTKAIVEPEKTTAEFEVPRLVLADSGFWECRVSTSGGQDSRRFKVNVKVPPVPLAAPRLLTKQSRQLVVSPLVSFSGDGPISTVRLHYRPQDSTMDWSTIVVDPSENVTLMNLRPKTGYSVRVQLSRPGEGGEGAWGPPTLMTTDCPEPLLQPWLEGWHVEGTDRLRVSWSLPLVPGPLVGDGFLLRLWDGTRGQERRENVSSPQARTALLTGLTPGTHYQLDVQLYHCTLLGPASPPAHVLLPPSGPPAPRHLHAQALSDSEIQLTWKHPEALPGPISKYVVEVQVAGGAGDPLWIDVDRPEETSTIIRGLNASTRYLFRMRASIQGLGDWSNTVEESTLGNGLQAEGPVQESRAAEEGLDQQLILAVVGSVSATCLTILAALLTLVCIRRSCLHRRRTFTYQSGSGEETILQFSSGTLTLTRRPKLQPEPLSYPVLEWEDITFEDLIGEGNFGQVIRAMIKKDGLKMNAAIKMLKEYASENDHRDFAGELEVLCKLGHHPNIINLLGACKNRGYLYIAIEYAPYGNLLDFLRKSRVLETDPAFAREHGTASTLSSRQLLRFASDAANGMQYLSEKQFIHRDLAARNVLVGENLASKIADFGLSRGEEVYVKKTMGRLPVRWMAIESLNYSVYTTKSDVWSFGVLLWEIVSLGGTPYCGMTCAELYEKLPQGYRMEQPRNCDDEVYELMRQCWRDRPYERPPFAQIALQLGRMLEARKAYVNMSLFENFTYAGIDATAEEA

B1: P-B1: anti-Tie1 antibody; VH SEQ ID NO:20, VL SEQ ID NO:22 (antibody, V domains shown)
VH: EVQLLESGGGLVQPGGSLRLSCAASGFTFSRYPMVWVRQAPGKGLEWVSVISPSGGQTFYADSVKGRFTISRDNSKNTLYLQMNSLRAEDTAVYYCARGVLTTAFDIWGQGTMVTVSSASTKGPSVFPLAPSSKAPLGAQRPWAAWSR
VL: QDIQMTQSPSSLSASVGDRVTITCRASQNINSYLNWYQQKPGQAPKLLIYAASNLETAVPSRFSGSGSGTDFTLTISSLQPEDFATYYCQQFNTYPLTFGGG
modifications: Synthetically generated peptide
- IF: Tie1-transfected (Tie1): weak
- effect on the survival effect of E3 IgG in Tie1-EpoR Ba/F3 assay [1]: inhibited the viability effect of E3 IgG to some extent

B2: E3 Fab parental (antibody, V domains shown)
VH: EVQLLESGGGLVQPGGSLRLSCAASGFTFSMYGMVWVRQAPGKGLEWVSVISPSGGNTGYADSVKGRFTISRDNSKNTLYLQVNSLRAEDTAVYYCARAPRGYSYGYYYWGQGTLVTVSSASTKGPSVFPLAPSSKSTSGG
VL: DIQMTQSPLSLSASVGDRVTITCRASQGIGHYLAWYQQKPGKVPKLLIYTASTLQSGVPSRFSGSGSGTDFTLTINSLQPEDVATYYCQQFNSYPHTFGQGTRLDIK
- ka (Mouse Tie 1-Fc): 246000 M⁻¹ s⁻¹
- kd (Mouse Tie 1-Fc): 0.00095 s⁻¹

B3: E3 Fab Parental (antibody, V domains shown)
VH: B2 VH
VL: B2 VL
- ka [2]: 88100 M⁻¹ s⁻¹
- kd [2]: 0.00105 s⁻¹

B4: P-F4: anti-Tie1 antibody; VH SEQ ID NO:48, VL SEQ ID NO:50 (antibody, V domains shown)
VH: EVQLLESGGGLVQPGGSLRLSCAASGFTFSAYMMSWVRQAPGKGLEWVSSIYPSGGYTYYADSVKGRFTISRDNSKNTLYLQMNSLRAEDTAVYYCARGLRGGPDYWGQGTLVTVSSASTKGPSVFPLAPSSKSTSGGTAALG
VL: QDIQMTQSPSTLSAYVGDSVTITCRASQSVRRSLAWYQQRPGKAPKSLIYKASTLETGVPPRFSGSGSGTEFTLTISSLQPEDSAIYYCQQYGSFPLTFGGG
modifications: Synthetically generated peptide
- IF: Tie1-transfected (Tie1): cross
